From article PMC7881195

Experiments:
[1] = biological target: C. elegans PGL-1 N-terminal dimerization domain (NtDD), wild-type (C. elegans); test: SEC-MALS; C. elegans PGL-1 NtDD wild-type and mutants injected at 1 mg/ml in HNT buffer (20 mM HEPES pH 7.4, 100 mM NaCl, 0.5 mM TCEP) on a SEC 650 sizing column, 0.4 ml/min
[2] = biological target: C. elegans PGL-3 N-terminal dimerization domain (NtDD), wild-type (C. elegans); test: SEC-MALS; C. elegans PGL-3 NtDD wild-type and mutant, 500 µl at 1 mg/ml in HNT buffer (20 mM HEPES pH 7.5, 100 mM NaCl, 0.5 mM TCEP) on Superdex 75 10/300 GL, 0.5 ml/min, 20 °C

| stoichiometry N [1] | stoichiometry N [2] | Substance |
| --- | --- | --- |
| 2 |  | C. elegans PGL-1 N-terminal dimerization domain (NtDD), wild-type (domain or fragment) |
|  | 2 | C. elegans PGL-3 N-terminal dimerization domain (NtDD), wild-type (domain or fragment) |
